Measured values taken from the supplement of paper PMC10126150.
± gives the standard deviation of the averaged measurements.

Test system: ATP
Experiment: switch fluorescence ratio, 500 uM ATP over buffer (Cy3 cluster intensity, sum of 5 cycles each) (fold (ratio)); higher = stronger signal-on switching upon ATP binding; sequences stand for … in TCGTCGGCAGCGTCAGATGTGTATAAGAGACAGTTTTTTTTTTTTTTTTTTTTTTTTT…TC
Conditions: aptamer strand: ATP DNA aptamer (quencher-CACCTGGGGGAGTATTGCGGAGGAAGG + anchor), 100 nM annealed; ATP concentration: 500 uM
Outline: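 Clusters with intensities outside 100-1000 RFU were excluded. The remaining Cy3-labelled switching-strand clusters on a modified Illumina MiSeq flow-cell had been annealed to 100 nM quencher-labelled ATP aptamer and imaged in selection buffer, then after 15 min with 500 uM ATP at 22 °C, for five cycles separated by NaOH stripping and re-annealing. The fluorescence ratio, averaged per switch-domain sequence, is each cluster's summed target-cycle Cy3 intensity over its summed buffer-cycle Cy3 intensity.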
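Further: ATP exposure 15 min at 22 °C before imaging.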

| Sequence | switch fluorescence ratio |
| --- | --- |
| TGCTGCTCAG | 1.01 ± 0.032 |
| TGCTGCTCGG | 0.973 ± 0.031 |
| TGCTGCTTTT | 0.943 ± 0.036 |
| TGCTGGCATG | 0.967 ± 0.014 |
| TGCTGGGGGA | 1.01 ± 0.025 |
| TGCTGGTATA | 0.983 ± 0.038 |
| TGCTGGTTGG | 0.998 ± 0.026 |
| TGCTGGTTTT | 1.01 ± 0.037 |
| TGCTGTGTTT | 1.02 ± 0.039 |
| TGCTGTTGTA | 0.998 ± 0.033 |
| TGCTGTTTAC | 1.2 ± 0.28 |
| TGCTTACTTT | 1.33 ± 0.58 |
| TGCTTCCGAA | 1.52 ± 0.082 |
| TGCTTCTAAC | 1.006 ± 0.0082 |
| TGCTTGCTTT | 1.004 ± 0.01 |
| TGCTTGGCTA | 0.98 ± 0.033 |
| TGCTTTGGGG | 0.982 ± 0.071 |
| TGCTTTTTAA | 1.03 ± 0.063 |
| TGGAAAAACT | 1.08 ± 0.029 |
| TGGAAACCGG | 1.009 ± 0.0055 |
| TGGAAAGGGG | 1.01 ± 0.014 |
| TGGAAAGTGT | 0.987 ± 0.018 |
| TGGAAATAAG | 1.03 ± 0.047 |
| TGGAAATTGG | 1.01 ± 0.02 |
| TGGAAATTGT | 0.9944 ± 0.0077 |

| Sequence | switch fluorescence ratio |
| --- | --- |
| TGGAAATTTT | 1 ± 0.038 |
| TGGAAGCGTC | 1.02 ± 0.022 |
| TGGAAGGGAG | 0.9738 ± 0.0083 |
| TGGAAGGGGA | 1 ± 0.013 |
| TGGAAGGGGC | 1.04 ± 0.035 |
| TGGAAGTTGG | 0.989 ± 0.023 |
| TGGAATAATT | 1.003 ± 0.0081 |
| TGGAATACG | 1.35 ± 0.036 |
| TGGAATATTC | 1.04 ± 0.011 |
| TGGAATATTT | 1.03 ± 0.044 |
| TGGAATGTTG | 1.02 ± 0.0078 |
| TGGAATTCGG | 1.02 ± 0.0061 |
| TGGAATTGTG | 1.05 ± 0.058 |
| TGGACAACTT | 0.995 ± 0.025 |
| TGGACCAAAA | 1.03 ± 0.013 |
| TGGACCGGTT | 1.034 ± 0.0016 |
| TGGACGCGCT | 1.01 ± 0.025 |
| TGGACGGGTT | 1.02 ± 0.014 |
| TGGACGTCGT | 0.987 ± 0.019 |
| TGGACGTGGG | 0.98 ± 0.052 |
| TGGACGTTGC | 1.03 ± 0.012 |
| TGGACTAGAA | 0.983 ± 0.042 |
| TGGACTCTGG | 0.973 ± 0.02 |
| TGGACTTAGG | 0.987 ± 0.03 |
| TGGAGAGGGA | 0.9805 ± 0.0078 |

| Sequence | switch fluorescence ratio |
| --- | --- |
| TGGAGAGGGT | 0.976 ± 0.0099 |
| TGGAGAGGTG | 1.02 ± 0.083 |
| TGGAGCTGCA | 1.04 ± 0.09 |
| TGGAGCTTGA | 1.02 ± 0.021 |
| TGGAGGAGGG | 1 ± 0.032 |
| TGGAGGATTG | 0.991 ± 0.016 |
| TGGAGGGCTT | 1.04 ± 0.021 |
| TGGAGGGGAG | 0.9858 ± 0.0062 |
| TGGAGGGGTT | 1.02 ± 0.037 |
| TGGAGTTTTT | 0.985 ± 0.032 |
| TGGATACACT | 1.04 ± 0.032 |
| TGGATAGTGT | 0.998 ± 0.011 |
| TGGATATAGG | 1.03 ± 0.038 |
| TGGATATTTG | 0.983 ± 0.065 |
| TGGATCCCCA | 1.06 ± 0.091 |
| TGGATGAGCT | 0.9968 ± 0.0088 |
| TGGATGCTTG | 1.01 ± 0.045 |
| TGGATGGAAT | 0.961 ± 0.035 |
| TGGATGTATT | 1.28 ± 0.4 |
| TGGATGTTTA | 1.03 ± 0.024 |
| TGGATTATTG | 0.9445 ± 0.0019 |
| TGGATTGAGC | 0.967 ± 0.026 |
| TGGATTTTGC | 0.989 ± 0.029 |
| TGGCAACACC | 1.94 ± 1.2 |
| TGGCAATGGG | 1.05 ± 0.017 |

| Sequence | switch fluorescence ratio |
| --- | --- |
| TGGCAGGGGT | 1.56 ± 0.63 |
| TGGCAGGTTG | 1.01 ± 0.013 |
| TGGCCCCTAT | 0.962 ± 0.029 |
| TGGCCGGCTG | 1 ± 0.074 |
| TGGCCGGTGT | 0.991 ± 0.032 |
| TGGCCGGTTT | 1.01 ± 0.011 |
| TGGCGAACGG | 1.01 ± 0.052 |
| TGGCGAAGTA | 1.01 ± 0.013 |
| TGGCGATAAT | 1.05 ± 0.031 |
| TGGCGCTGGG | 0.978 ± 0.022 |
| TGGCGGGGCG | 1.02 ± 0.038 |
| TGGCGGGGGA | 1.05 ± 0.042 |
| TGGCGGGTCG | 1.06 ± 0.079 |
| TGGCGGGTTA | 0.988 ± 0.067 |
| TGGCGGTGGT | 0.978 ± 0.017 |
| TGGCGGTTTT | 1.005 ± 0.0077 |
| TGGCTAAACG | 0.992 ± 0.019 |
| TGGCTGACAG | 0.992 ± 0.023 |
| TGGCTGTACA | 1.01 ± 0.025 |
| TGGCTGTTTT | 1.04 ± 0.042 |
| TGGCTTAGTT | 0.9956 ± 0.0026 |
| TGGCTTGCCG | 0.998 ± 0.027 |
| TGGCTTTTGT | 1.44 ± 0.63 |
| TGGGAAAATG | 1.018 ± 0.0069 |
| TGGGAAAGGC | 1.07 ± 0.061 |
